Patent US20050244416A1

Target: melanoma-associated proteoglycan expressed on M21 and SKMel63 melanoma cells (UniProt Q6UVK1)
Assay: cell-based or functional assay

Chain of UniProt Q6UVK1 (Q6UVK1 30-2322 limits assumed): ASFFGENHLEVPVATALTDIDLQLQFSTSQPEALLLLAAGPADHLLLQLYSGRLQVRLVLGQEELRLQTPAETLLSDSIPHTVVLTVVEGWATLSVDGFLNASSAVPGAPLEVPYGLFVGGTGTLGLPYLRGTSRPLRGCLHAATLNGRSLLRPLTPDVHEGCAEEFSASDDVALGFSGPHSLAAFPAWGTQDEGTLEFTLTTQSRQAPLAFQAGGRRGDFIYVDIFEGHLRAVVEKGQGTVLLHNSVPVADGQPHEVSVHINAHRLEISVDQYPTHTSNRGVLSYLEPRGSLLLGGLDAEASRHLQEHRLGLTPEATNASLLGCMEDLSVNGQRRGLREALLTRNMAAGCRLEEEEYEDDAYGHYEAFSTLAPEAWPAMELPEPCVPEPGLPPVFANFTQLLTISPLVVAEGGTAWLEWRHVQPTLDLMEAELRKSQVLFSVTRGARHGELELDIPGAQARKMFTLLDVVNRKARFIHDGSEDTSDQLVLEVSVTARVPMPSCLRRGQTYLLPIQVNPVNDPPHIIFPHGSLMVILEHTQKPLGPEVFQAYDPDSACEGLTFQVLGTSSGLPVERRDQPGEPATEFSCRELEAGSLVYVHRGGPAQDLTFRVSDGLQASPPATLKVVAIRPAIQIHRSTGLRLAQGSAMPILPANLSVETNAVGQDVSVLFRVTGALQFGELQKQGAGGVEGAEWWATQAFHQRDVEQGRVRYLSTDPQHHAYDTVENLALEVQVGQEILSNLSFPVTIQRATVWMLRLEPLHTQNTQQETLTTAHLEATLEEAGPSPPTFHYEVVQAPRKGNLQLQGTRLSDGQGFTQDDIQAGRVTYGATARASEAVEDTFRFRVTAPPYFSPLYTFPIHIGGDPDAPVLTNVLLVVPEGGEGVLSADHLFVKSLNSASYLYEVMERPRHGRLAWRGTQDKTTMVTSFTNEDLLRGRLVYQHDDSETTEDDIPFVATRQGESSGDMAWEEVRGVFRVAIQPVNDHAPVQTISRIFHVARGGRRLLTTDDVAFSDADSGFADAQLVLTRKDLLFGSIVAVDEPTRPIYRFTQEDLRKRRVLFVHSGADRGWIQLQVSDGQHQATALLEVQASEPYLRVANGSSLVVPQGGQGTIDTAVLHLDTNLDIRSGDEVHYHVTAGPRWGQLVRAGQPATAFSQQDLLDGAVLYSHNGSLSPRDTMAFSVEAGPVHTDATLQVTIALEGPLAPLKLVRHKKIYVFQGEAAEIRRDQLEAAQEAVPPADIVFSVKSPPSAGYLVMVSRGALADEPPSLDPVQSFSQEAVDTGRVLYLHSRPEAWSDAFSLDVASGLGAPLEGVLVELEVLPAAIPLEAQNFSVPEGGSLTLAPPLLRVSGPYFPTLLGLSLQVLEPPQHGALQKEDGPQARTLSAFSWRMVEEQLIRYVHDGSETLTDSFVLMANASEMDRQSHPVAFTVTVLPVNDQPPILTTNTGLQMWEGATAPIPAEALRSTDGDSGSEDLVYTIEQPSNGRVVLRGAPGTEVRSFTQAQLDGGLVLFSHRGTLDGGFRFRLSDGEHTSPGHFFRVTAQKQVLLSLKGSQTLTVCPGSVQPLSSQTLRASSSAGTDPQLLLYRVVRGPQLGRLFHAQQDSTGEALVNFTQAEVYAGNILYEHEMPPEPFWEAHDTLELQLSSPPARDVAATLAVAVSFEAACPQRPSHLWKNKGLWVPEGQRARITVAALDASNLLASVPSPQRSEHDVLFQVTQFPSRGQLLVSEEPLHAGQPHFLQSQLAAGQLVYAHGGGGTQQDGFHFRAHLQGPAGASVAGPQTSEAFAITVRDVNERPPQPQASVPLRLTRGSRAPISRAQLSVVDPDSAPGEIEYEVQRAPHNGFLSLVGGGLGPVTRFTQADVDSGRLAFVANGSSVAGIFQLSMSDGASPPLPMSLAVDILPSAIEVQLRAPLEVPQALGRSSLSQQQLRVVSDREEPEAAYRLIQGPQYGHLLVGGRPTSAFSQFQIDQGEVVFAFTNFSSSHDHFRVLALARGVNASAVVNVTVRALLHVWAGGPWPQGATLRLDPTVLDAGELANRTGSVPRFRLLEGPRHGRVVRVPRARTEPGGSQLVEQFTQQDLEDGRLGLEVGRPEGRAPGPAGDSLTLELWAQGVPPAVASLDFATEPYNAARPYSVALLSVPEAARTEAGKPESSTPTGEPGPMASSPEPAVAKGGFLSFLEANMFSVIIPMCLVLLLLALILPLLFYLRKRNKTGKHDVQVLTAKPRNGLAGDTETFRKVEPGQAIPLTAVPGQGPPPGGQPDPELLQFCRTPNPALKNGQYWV

Substance: chemically hybridized bispecific F(ab')2 fragment with melanoma (9.2.27) and CD28 (9.3) specificity (cM28) (bispecific antibody)
- T cell proliferation (3H-thymidine uptake) of PBMC in the presence of irradiated SKMel63 cells: > 300 ng/mL
